B1: humanized anti-GPRC5D antibody 29H2 (antibody, human IgG1, kappa, V domains shown)
VH: QVQLVQSGAEVKKPGASVKVSCKASGYTFTTHYMYWVRQAPGQGLEWMGGINPSNGATNFNEKFKTRVTLTVDKSTSTAYMELSSLRSEDTAVYYCTRVGGLSYTMDYWGQGTLVTVSS
VL: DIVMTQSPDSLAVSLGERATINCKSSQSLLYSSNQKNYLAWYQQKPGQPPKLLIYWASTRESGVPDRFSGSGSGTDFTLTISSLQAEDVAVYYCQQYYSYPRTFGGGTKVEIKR
notes: Human IgG1 / kappa
B2: humanized anti-GPRC5D antibody 29H21 (antibody, human IgG1, kappa, V domains shown)
VH: QVQLVQSGAEVKKPGASVKVSCKASGYTFTTHYMYWVRQAPGQGLEWIGGINPSNGATNFNEKFKTRVTLTVDKSISTAYMELSRLRSDDTAVYYCTRVGGLSYTMDYWGQGTLVTVSS
VL: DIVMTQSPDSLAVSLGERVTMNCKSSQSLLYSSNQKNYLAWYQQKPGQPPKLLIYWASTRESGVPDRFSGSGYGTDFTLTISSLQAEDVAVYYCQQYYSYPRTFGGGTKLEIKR
notes: Human IgG1 / kappa
B3: humanized anti-GPRC5D antibody 29H24 (antibody, human IgG1, kappa, V domains shown)
VH: QVQLVQSGAEVKKPGASVKVSCKASGYTFTTHYMYWVKQAPGQGLEWIGGINPSNGATNFNEKFKTKATLTVDKSISTAYMELSRLRSDDTAVYYCTRVGGLSYTMDYWGQGTLVTVSS
VL: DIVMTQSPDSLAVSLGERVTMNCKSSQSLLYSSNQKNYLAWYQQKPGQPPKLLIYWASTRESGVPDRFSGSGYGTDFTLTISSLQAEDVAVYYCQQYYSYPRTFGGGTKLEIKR
notes: Human IgG1 / kappa
B4: humanized anti-GPRC5D antibody 29H6 (antibody, human IgG1, kappa, V domains shown)
VH: QVQLVQSGAEVKKPGASVKVSCKASGYTFTTHYMYWVRQAPGQGLEWIGGINPSNGATNFNEKFKTKATLTVDKSTSTAYMELSSLRSEDTAVYYCTRVGGLSYTMDYWGQGTLVTVSS
VL: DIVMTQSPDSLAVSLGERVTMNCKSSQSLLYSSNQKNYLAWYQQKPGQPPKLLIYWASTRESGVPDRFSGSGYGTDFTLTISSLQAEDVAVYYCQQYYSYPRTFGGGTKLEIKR
notes: Human IgG1 / kappa
B5: humanized anti-GPRC5D antibody 29H20 (antibody, human IgG1, kappa, V domains shown)
VH: QVQLVQSGAEVKKPGASVKVSCKASGYTFTTHYMYWVRQAPGQGLEWIGGINPSNGATNFNEKFKTRVTLTVDKSISTAYMELSRLRSDDTAVYYCTRVGGLSYTMDYWGQGTLVTVSS
VL: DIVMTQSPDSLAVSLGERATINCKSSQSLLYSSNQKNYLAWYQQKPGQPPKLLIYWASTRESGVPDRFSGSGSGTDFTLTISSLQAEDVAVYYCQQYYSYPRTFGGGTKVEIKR
notes: Human IgG1 / kappa
B6: anti-CD3/GPRC5D bispecific antibody Bi-29H6/23L2 (bispecific antibody, human IgG1, kappa, L234A L235A)
heavy 1: QVQLVQSGAEVKKPGASVKVSCKASGYTFTTHYMYWVRQAPGQGLEWIGGINPSNGATNFNEKFKTKATLTVDKSTSTAYMELSSLRSEDTAVYYCTRVGGLSYTMDYWGQGTLVTVSSASTKGPSVFPLAPSSKSTSGGTAALGCLVKDYFPEPVTVSWNSGALTSGVHTFPAVLQSSGLYSLSSVVTVPSSSLGTQTYICNVNHKPSNTKVDKKVEPKSCDKTHTCPPCPAPEAAGGPSVFLFPPKPKDTLMISRTPEVTCVVVAVSHEDPEVKFNWYVDGVEVHNAKTKPREEQYNSTYRVVSVLTVLHQDWLNGKEYKCKVSNKALAAPIEKTISKAKGQPREPQVCTLPPSRDELTKNQVSLSCAVKGFYPSDIAVEWESNGQPENNYKTTPPVLDSDGSFFLVSKLTVDKSRWQQGNVFSCSVMHEALHNHYTQKSLSLSPGK
heavy 2: not shown
light: not shown
B7: anti-CD3/GPRC5D bispecific antibody Bi-29H6-2 (bispecific antibody, human IgG1, kappa, L234A L235A)
heavy 1: QVQLVQSGAEVKKPGASVKVSCKASGYTFTTHYMYWVRQAPGQGLEWIGGINPSNGATNFNEKFKTKATLTVDKSTSTAYMELSSLRSEDTAVYYCTRVGGLSYTMDYWGQGTLVTVSSASTKGPSVFPLAPSSKSTSGGTAALGCLVKDYFPEPVTVSWNSGALTSGVHTFPAVLQSSGLYSLSSVVTVPSSSLGTQTYICNVNHKPSNTKVDKKVEPKSCDKTHTCPPCPAPEAAGGPSVFLFPPKPKDTLMISRTPEVTCVVVAVSHEDPEVKFNWYVDGVEVHNAKTKPREEQYNSTYRVVSVLTVLHQDWLNGKEYKCKVSNKALAAPIEKTISKAKGQPREPQVCTLPPSRDELTKNQVSLSCAVKGFYPSDIAVEWESNGQPENNYKTTPPVLDSDGSFFLVSKLTVDKSRWQQGNVFSCSVMHEALHNHYTQKSLSLSPGK
heavy 2: not shown
light: not shown
B8: anti-CD3/GPRC5D bispecific antibody Bi-29H6GE/23L2 (bispecific antibody, human IgG1, kappa, L234A L235A)
heavy 1: QVQLVQSGAEVKKPGASVKVSCKASGYTFTTHYMYWVRQAPGQGLEWIGGINPSNEATNFNEKFKTKATLTVDKSTSTAYMELSSLRSEDTAVYYCTRVGGLSYTMDYWGQGTLVTVSSASTKGPSVFPLAPSSKSTSGGTAALGCLVKDYFPEPVTVSWNSGALTSGVHTFPAVLQSSGLYSLSSVVTVPSSSLGTQTYICNVNHKPSNTKVDKKVEPKSCDKTHTCPPCPAPEAAGGPSVFLFPPKPKDTLMISRTPEVTCVVVAVSHEDPEVKFNWYVDGVEVHNAKTKPREEQYNSTYRVVSVLTVLHQDWLNGKEYKCKVSNKALAAPIEKTISKAKGQPREPQVCTLPPSRDELTKNQVSLSCAVKGFYPSDIAVEWESNGQPENNYKTTPPVLDSDGSFFLVSKLTVDKSRWQQGNVFSCSVMHEALHNHYTQKSLSLSPGK
heavy 2: not shown
light: not shown
B9: anti-CD3/GPRC5D bispecific antibody Bi-29H6-5 (bispecific antibody, human IgG1, kappa, L234A L235A)
heavy 1: QVQLVQSGAEVKKPGASVKVSCKASGYTFTTHYMYWVRQAPGQGLEWIGGINPSSGATNFNEKFKTKATLTVDKSTSTAYMELSSLRSEDTAVYYCTRVGGLSYTMDYWGQGTLVTVSSASTKGPSVFPLAPSSKSTSGGTAALGCLVKDYFPEPVTVSWNSGALTSGVHTFPAVLQSSGLYSLSSVVTVPSSSLGTQTYICNVNHKPSNTKVDKKVEPKSCDKTHTCPPCPAPEAAGGPSVFLFPPKPKDTLMISRTPEVTCVVVAVSHEDPEVKFNWYVDGVEVHNAKTKPREEQYNSTYRVVSVLTVLHQDWLNGKEYKCKVSNKALAAPIEKTISKAKGQPREPQVCTLPPSRDELTKNQVSLSCAVKGFYPSDIAVEWESNGQPENNYKTTPPVLDSDGSFFLVSKLTVDKSRWQQGNVFSCSVMHEALHNHYTQKSLSLSPGK
heavy 2: not shown
light: not shown
B10: anti-CD3/GPRC5D bispecific antibody Bi-29H6-1 (bispecific antibody)
chain: EPKSSDKTHTCPPCPAPEAAGGPSVFLFPPKPKDTLMISRTPEVTCVVVAVSHEDPEVKFNWYVDGVEVHNAKTKPREEQYNSTYRVVSVLTVLHQDWLNGKEYKCKVSNKALAAPIEKTISKAKGQPREPQVCTLPPSRDELTKNQVSLSCAVKGFYPSDIAVEWESNGQPENNYKTTPPVLDSDGSFFLVSKLTVDKSRWQQGNVFSCSVMHEALHNHYTQKSLSLSPGK
heavy: not shown
light: not shown
B11: anti-CD3/GPRC5D bispecific antibody Bi-29H6-3 (bispecific antibody)
chain: EPKSSDKTHTCPPCPAPEAAGGPSVFLFPPKPKDTLMISRTPEVTCVVVAVSHEDPEVKFNWYVDGVEVHNAKTKPREEQYNSTYRVVSVLTVLHQDWLNGKEYKCKVSNKALAAPIEKTISKAKGQPREPQVCTLPPSRDELTKNQVSLSCAVKGFYPSDIAVEWESNGQPENNYKTTPPVLDSDGSFFLVSKLTVDKSRWQQGNVFSCSVMHEALHNHYTQKSLSLSPGK
heavy: not shown
light: not shown

As usually defined, the EC50 (read off the curve) is the midpoint of the concentration-response curve.

The target of the first assay is T1, human GPRC5D protein (human, UniProt Q9NZD1 1-345).
T1 construct: NCI-H929 cells express it endogenously in the functional assays; also called HuGPRC5D; huGPRC5D
T1 sequence (Q9NZD1 whole entry): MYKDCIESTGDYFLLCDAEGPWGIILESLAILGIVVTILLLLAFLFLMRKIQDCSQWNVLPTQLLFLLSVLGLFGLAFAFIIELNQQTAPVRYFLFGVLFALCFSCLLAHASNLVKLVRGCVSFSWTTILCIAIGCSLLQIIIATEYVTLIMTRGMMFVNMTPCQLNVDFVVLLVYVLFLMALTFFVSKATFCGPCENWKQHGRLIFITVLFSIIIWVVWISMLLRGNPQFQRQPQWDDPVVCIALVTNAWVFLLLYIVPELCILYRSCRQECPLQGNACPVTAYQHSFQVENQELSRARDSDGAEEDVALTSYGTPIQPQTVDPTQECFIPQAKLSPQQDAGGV
As to the kind of experiment: flow cytometry, HEK293T-HuGPRC5D cells (sheet: 293T-huGPRC5D), PE anti-human IgG Fc secondary, MFI. As for the experimental part:
Whether the anti-GPRC5D humanized antibodies in the present invention could bind to the human GPRC5D protein stably expressed on the cell surface was determined by cell binding experiments. The HEK293T-HuGPRC5D cell line shown in Table 2 was subjected to enzymatic digestion to obtain a single cell suspension of the HEK293T-huGPRC5D cells. The single cell suspension was centrifuged at room temperature at 400×g, and then the medium was discarded. The cell pellet was washed once with PBS and then resuspended in the serially diluted anti-GPRC5D humanized antibodies and the murine chimeric antibody 29H12C9 (at an initial concentration of 166.67 nM, 4-fold gradient dilution, 8 concentration points in total), and the cells were incubated at 4° C. for 30 min. The cells were washed once with PBS, and then fluorescent secondary antibody R-PE-conjugated AffiniPure Goat Anti-Human IgG, Fcγ Fragment Specific (Jackson ImmunoResearch, Cat #109-116-098) diluted in a 1:200 ratio was added. The cells were incubated in the dark at 4° C. for 30 min. The cells were washed twice with PBS and then resuspended, and finally, two-channel fluorescence signals were detected using a Beckman Cytoflex flow cytometer.
For the molecule B1, the binding result was “binds”.
The same measure, in the same setting: the entry for B2 is “binds”.
The same measure, in the same setting: the entry for B3 is “binds”; for B4 it is “binds”; for B5 it is “binds”.

For another assay, the target named is T1, human GPRC5D protein. Put plainly: flow cytometry, HEK293T cells stably expressing human GPRC5D (sheet: 293T-huGPRC5D), PE anti-human IgG Fc secondary, MFI. The protocol: (2) Whether the anti-CD3/anti-GPRC5D bispecific antibodies in the present invention could bind to HEK293T cells stably expressing the human GPRC5D protein was determined by cell binding experiments. […] The plate was centrifuged at room temperature at 400×g, and then the supernatant was discarded. The cells were washed twice with PBS and centrifuged. The supernatant was discarded. The cell pellet was resuspended in fluorescent secondary antibody R-PE-conjugated AffiniPure Goat Anti-Human IgG, Fcγ Fragment Specific (Jackson ImmunoResearch, Cat #109-116-098) diluted in a 1:200 ratio. The cells were incubated in the dark at 4° C. for 30 min. The cells were washed twice with PBS, and 100 μL of PBS was added to each well to resuspend the cells. Fluorescence signals were detected using a Beckman Cytoflex flow cytometer.
Background: In flow cytometry, cells or beads pass a laser one at a time.
For the molecule B6, the “EC50 (read off the curve)” value is approximately 3 nM.
Same read-out and setting: the figure for B7 is approximately 2 nM; for B8 it is approximately 3 nM.
With B9, the binding result was “binds”.
With B10, the “EC50 (read off the curve)” value was approximately 6 nM.
On the same count and under the same terms, the figure for B11 is approximately 10 nM.

The values above are taken from patent US20250092135A1 (NANJING LEADS BIOLABS, published 2025).
